The test system of one experiment is human OPC. Description: Expression of MBP in human OPC in primary culture stimulated by MSRV-Env, with or without GNbAC1 (immunocytochemistry). The format is cell-based. To be noted: for MBP positive cells, normalized to control condition (buffer = 100%): pooled data. As to the method: Full length recombinant MSRV-Env was produced and purified by PX′Therapeutics (548 aa; 61.44 KDa) (batch 110719-1). The initial concentration was 0.6 mg/ml (9.76 μM). MSRV-Env Buffer (20 mM Trizma-HCl, pH 7.5, 150 mM NaCl, 1.5% SDS, 10 mM DTT) was provided by PX′Therapeutics. This solution was used as a negative control. GNbAC1 (Batch T96/bAC1/B1; GMP production) was produced and purified by Polymun Scientific, Vienna, Austria. The initial concentration was 10 mg/ml (68.03 μM).
Human OPC were stimulated with the different treatments either by coating solutions on the cell culture plate surface before cells seeding or by adding them in the cell culture medium after cells seeding. In any case, labtek 8-wells chamber slides (Nunc) were previously coated with poly-L-lysine (Sigma-Aldrich) overnight at 37° C.
The different treatments were diluted in PBS under a sterile laminar flow hood (Fischer Bioblock, France) and the Labtek 8 wells chambers slides (Nunc; 250 μl per well) were coated as follows: • MSRV-Env (1 μg/ml) coated for 2 hours at 37° C. • MSRV-Env Buffer (same dilution than MSRV-Env) coated for 2 hours at 37° C. • MSRV-Env+GNbAC1 A1: MSRV-Env (1 μg/ml) and GNbAC1 (7.35 μg/ml=50 nM) mixture coated for 2 hours at 37° C. • MSRV-Env+GNbAC1 A2: MSRV-Env (1 μg/ml) and GNbAC1 (29.4 μg/ml=200 nM) mixture coated for 2 hours at 37° C. • MSRV-Env+GNbAC1 B1: MSRV-Env (1 μg/ml) coated for 2 hours at 37° C., washed with PBS and subsequently coated with GNbAC1 (7.35 μg/ml=50 nM) for 1 hour at 37° C. • MSRV-Env+GNbAC1 B2: MSRV-Env (1 μg/ml) coated for 2 hours at 37° C., washed with PBS and subsequently coated with GNbAC1 (29.4 μg/ml=200 nM) for 1 hour at 37° C. • GNbAC1 A1 alone: GNbAC1 (7.35 μg/ml=50 nM) coated for 2 hours at 37° C. • GNbAC1 A2 alone: GNbAC1 (29.4 μg/ml=200 nM) coated for 2 hours at 37° C. • GNbAC1 B1 alone: PBS for 2 hours at 37° C., then coated with GNbAC1 (7.35 μg/ml=50 nM) for 1 hour at 37° C. • GNbAC1 B2 alone: PBS for 2 hours at 37° C., then coated with GNbAC1 (29.4 μg/ml=200 nM) for 1 hour at 37° C. • BSA (1 μg/ml) coated for 2 hours at 37° C. • BSA+GNbAC1 A1: BSA (1 μg/ml) and GNbAC1 (7.35 μg/ml=50 nM) mixture coated for 2 hours at 37° C. • BSA+GNbAC1 A2: BSA (1 μg/ml) and GNbAC1 (29.4 μg/ml=200 nM) mixture coated for 2 hours at 37° C. • BSA+GNbAC1 B1: BSA (1 μg/ml) coated for 2 hours at 37° C., washed with PBS and subsequently coated with GNbAC1 (7.35 μg/ml=50 nM) for 1 hour at 37° C. • BSA+GNbAC1 B2: BSA (1 μg/ml) coated for 2 hours at 37° C., washed with PBS and subsequently coated with GNbAC1 (29.4 μg/ml=200 nM) for 1 hour at 37° C. Human Oligodendrocyte Precursor Cells Culture
The vial containing the human OPC was placed in a 37° C. water bath and gently agitated by rotation until the content was completely thawed. The cells were gently resuspended with a 1 ml Gilson pipette. Then, they were diluted in complete OPCM, and seeded into the 8-wells labtek culture vessels (7000 cells/cm^2=10000 cells per well) previously coated with poly-L-lysine (0.01%, Sigma) and with (or without) the treatments described above (see 3.2.1.1) under a sterile laminar flow hood (Fischer Bioblock, France). The cultures were incubated at 37° C.; 5% CO2 until subsequent immunocytochemistry experiments. The growth medium was changed the next day to remove the residual DMSO and unattached cells in the cultures treated for 72 hours.
After 3 hours of pre-cultivation (see 3.2.1.2) of the human OPC in the 8-well labtek culture vessels, the cells were incubated at 37° C. for 24 hours or 72 hours in 8-wells labteks (250 μl/well) with the addition of the following solutions: • MSRV-Env Buffer, used as a negative control, added in complete cell culture medium • MSRV-Env added at 3 nM (0.184 μg/ml) in complete cell culture medium • MSRV-Env (3 nM)+GNbAC1 (200 nM; 29.4 μg/ml) mixture added in complete cell culture medium • GNbAC1 (200 nM) alone added in complete cell culture medium Expression of TLR4 and Myelination Markers in OPC In Vitro […]

Experiment [1] has as its system MSRV-Env induced EAE in C57BL/6 mice. Description: Rotarod test, Example 3.B (MSRV-Env induced EAE). As to conditions: GNbAC1 500 μg/mouse given alone, all relevant speeds (16, 26, 29 rpm). The experiment is classed as in vivo. The method, then:
1 day before each immunization, mice were transferred in their home cages, from the holding room to the experimental room. Mice were habituated to the experimental room for 15 min. Mice then received two trials at 10 increasing speed levels, ranging from 7 to 40 rpm. Individual delays before falling off the rotarod (for the two trials at each speed level) was recorded until 60 sec. Thus, training and performance on the Rotarod system were determined for each animal.
The ROTAROD test results are expressed as kinetics of the mean of individual scores for each group with SEM indicated by bars, for each test day and for each test speed within the discriminating range for neuromotor impairment in present conditions (16 to 29 rpm).
They are calculated for each individual mouse, for each test day and for each speed value, as the relative gain or loss of time on Rotarod (before falling), compared to the first test day at the same speed (D-7, before starting the disease induction in relevant groups). The value is calculated as “Time on Rotarod at dayX”−“Time at Day-7 for the same mouse at the same speed”. […]
(In general: Falling from the rotarod earlier than controls is read as motor impairment.)

One molecule from patent US10752675B2, “Compounds for treating the remyelination blockade in diseases associated with the expression of HERV-W envelope protein” (GENEURO S.A., priority 2012, dated 2020) can be followed below.

Entries after “also recorded” stand apart in the source; their conditions may differ.

B1: GNbAC1: recombinant humanized anti-Env IgG4 monoclonal antibody comprising the CDRs of SEQ ID No. 1 to 6 (antibody, chains of the INN, looked up, V domains shown)
VH: QVQLVQSGAEVKKPGSSVKVSCKASGYTFTDYEMHWVRQAPGQGLEWIGAVAPETGGTAYNQKFKGRATITADKSTSTAYMELSSLRSEDTAVYYCTSTVVPFAYWGQGTLVTVSS
VL: QIQLTQSPSSLSASVGDRVTITCSASSSVSYMYWYQQKPGKAPKAWIYRTSNLASGVPSRFSGSGSGTDYTLTISSLQPEDFATYYCQQYQSLPLTFGGGTKVEIK
For B1, the “effect on the decrease of MBP positive cells induced by coated MSRV-Env” value is listed as “partial effect; also recorded: partially inhibits MSRV-Env effect” with human OPC (GNbAC1 50 nM, both protocols, 72 hours) and “complete inhibition” with human OPC (GNbAC1 200 nM, both protocols, 72 hours). Moreover, the “effect on the inhibition of MBP expression induced by coated MSRV-Env” value in the experiment on human OPC (GNbAC1 200 nM, both protocols, 72 hours, OPC ICC 03) is “completely reverses”. In addition, the “percentage of MBP positive cells” value in the experiment on human OPC (GNbAC1-A 50 nM, coated MSRV-Env 1 μg/ml, 72 hours, OPC ICC 02) is on record as 69±2%; in the experiment on human OPC (GNbAC1-A 200 nM, coated MSRV-Env 1 μg/ml, 72 hours, OPC ICC 02), 73±2%; with human OPC (GNbAC1-A 200 nM, coated MSRV-Env 1 μg/ml, 72 hours, OPC ICC 03) it was 80±2%; in the experiment with human OPC (GNbAC1-B 50 nM, coated MSRV-Env 1 μg/ml, 72 hours, OPC ICC 02), 68±2%; in the experiment with human OPC (GNbAC1-B 200 nM, coated MSRV-Env 1 μg/ml, 72 hours, OPC ICC 02) it was 74±2%; in the experiment with human OPC (GNbAC1-B 200 nM, coated MSRV-Env 1 μg/ml, 72 hours, OPC ICC 03), 75±2%. Besides, in the experiment on human OPC (MSRV-Env 3 nM + GNbAC1 200 nM in culture medium, 72 hours), the “percentage of MBP positive cells” value is 76±2%. In addition, the “MBP positive cells, normalized to control condition (buffer = 100%)” value in the experiment on human OPC (GNbAC1-A 200 nM with coated MSRV-Env) was 101±2%; with human OPC (GNbAC1-B 200 nM with coated MSRV-Env), 97±2%. Moreover, the “effect on the decrease of MBP expression induced by MSRV-Env in culture medium” value in the experiment with human OPC (MSRV-Env 3 nM, GNbAC1 200 nM, 72 hours) is “inhibits completely this effect”. The “Rotarod, improvement of neurological deficit” value in experiment [1] is reported as “significantly the most efficient product”.
